This is an account of results in PMC12458545, “Repurposing a Detrimental Antibody Epitope as Targeted Therapeutics for Sepsis and Rheumatoid Arthritis” (Research Square, 2025).

Entries after “also recorded” stand apart in the source; their conditions may differ.

Series [1] deals with CLP-induced sepsis. As to the kind of experiment: CLP sepsis survival. Format: in vivo, Balb/C mice. As for the experimental part:
Experimental sepsis was induced in Balb/C mice via cecal ligation and puncture (CLP) as previously described,[30],[37]. […] Briefly, mice were anesthetized intramuscularly with ketamine (75 mg/kg, Henry Schein Animal Health, Dublin, Ohio) and xylazine (10 mg/kg, Sigma-Aldrich) before a midline abdominal incision was made in the lower left abdomen. The cecum was ligated with a 4–0 silk suture at 50% of its length from the distal end, and punctured twice with a 21-gauge needle to induce moderate to severe sepsis. The cecum was returned to the abdominal cavity, and the incision was closed in layers. Approximately 30 min post-CLP, animals received imipenem/cilastatin (0.5 mg/mouse, Primaxin, Merck & Co., Inc.) and 1.0 mL of sterile saline for fluid resuscitation. Animals were randomized to control vehicle and experimental groups, administered P2 or P2–1 intraperitoneally at indicated doses and time points, and monitored for survival rates. To elucidate P2–1’s protective mechanisms, a separate group of Balb/C mice underwent CLP and received P2–1 (1.0 mg/kg) at 2 h and 20 h post-CLP. At 24 h post-CLP, animals were euthanized to collect blood and measure serum cytokines and chemokines using murine Cytokine Antibody Arrays.
All data were first assessed for normality using the Shapiro-Wilk test before applying the appropriate statistical analyses. All data are presented as mean ± standard error of the mean (SEM) unless otherwise specified. For comparison among multiple groups with non-normal (skewed) distribution, the Kruskal-Wallis ANOVA test followed by Dunn’s post-hoc test was used to evaluate statistical differences. Survival curves were analyzed using Kaplan-Meier method and compared using the nonparametric log-rank (Mantel-Cox) test. Statistical significance was defined as a P value less than 0.05.

The next series in a line: water solubility. In kind it is physicochemical.
Another series has as its system TN peptides (P1-P10). As to the kind of experiment: dot blot epitope mapping of anti-TN mAbs with TN peptides P1-P10. In kind it is binding, human. The note with it: peptides 0.1 μg in 2.5 μl on nitrocellulose; mAb 1.0 μg/mL; chemiluminescence. As for the experimental part:
A library of ten synthetic peptides (P1-P10, fig. S1B) corresponding to C-terminus portion of TN protein (fig. S1A) were spotted (0.1 μg in 2.5 μl) onto nitrocellulose membranes (Thermo Scientific, Cat No. 88013). Membranes were blocked with 5% milk in PBS-T (PBS with 0.1% Tween-20) and then incubated with anti-TN monoclonal antibodies (mAb8 or mAb9, 1.0 μg/mL). After washing, membranes were incubated with HRP-conjugated goat anti-mouse IgG (Jackson ImmunoResearch), and signals were detected using chemiluminescence as described,[30].

Series [2] relates to CLP-induced sepsis. The note with it: anti-TN mAbs; mice; cited from earlier work.
Series [3] addresses T1, P5 peptide of tetranectin (Homo sapiens, UniProt P05452).
T1 construct: synthetic peptide from the C-terminal portion (CRD) of human tetranectin; S1A, S1B; source: synthetic peptide
T1 chain: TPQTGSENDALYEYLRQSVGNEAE
Nature of the series: far-Western, overlay or dot blot; synthetic TN peptides P1-P10 spotted (0.1 μg in 2.5 μl) on nitrocellulose, blocked with 5% milk in PBS-T; mAb8 or mAb9 at 1.0 μg/mL; HRP goat anti-mouse IgG, chemiluminescence. The note with it: both partners purified.

The test system of series [4] is human PBMCs. The note with it: TN; cited from earlier work. An excerpt:
To validate these RNA-seq findings, we quantified HMGB1-induced cytokine/chemokine protein levels using Cytokine Antibody Arrays.

Series [5] has as its system human PBMCs. Nature of the series: RNA-seq of HMGB1-stimulated PBMCs. In kind it is cell-based. The note with it: HMGB1 stimulation alone. On the procedure:
(§1) Human blood was purchased from the New York Blood Center (Long Island City, NY, USA), and PBMCs were isolated by density gradient centrifugation through Ficoll (Ficoll-Paque PLUS) as previously described,[30]. PBMCs were cultured in RPMI-1640 supplemented with 10% human serum, 2 mM L-glutamine, 100 U/mL penicillin, and 100 μg/mL streptomycin (all from Invitrogen). For experiments, PBMCs were stimulated with recombinant human HMGB1 (0.5 or 2.0 μg/ml) for 16 hours, either alone or in combination with P2–1 at 5.0 or 10.0 μg/ml. Cell-free supernatants were collected for analysis of cytokines/chemokines levels by Cytokine Antibody Arrays, or pCTS-L levels by Western blotting analysis as described.
Total RNA was isolated from human PBMCs stimulated with HMGB1 in the absence or presence of P2–1 (5.0 or 10.0 μg/ml) using the RNeasy Mini Kit (Qiagen) according to the manufacturer’s instructions. RNA quantity and quality were assessed using a NanoDrop spectrophotometer and an Agilent Bioanalyzer. cDNA libraries were prepared using the TruSeq RNA Library Prep Kit v2 (Illumina) and sequenced on an Illumina NovaSeq 6000 platform to generate 100 bp paired-end reads. Raw sequencing reads were quality-checked using FastQC, trimmed with Trimmomatic, and aligned to the human reference genome (GRCh38) using HISAT2. Gene counts were quantified using StringTie and DESeq2 was used for differential gene expression analysis. Volcano plots and heatmaps were generated using ggplot2 and pheatmap packages in R, respectively. Genes with an adjusted P-value < 0.05 and a |log2-fold change| > 1 were considered differentially expressed.

Series [6] deals with human PBMCs. As to the kind of experiment: HMGB1-induced cytokine/chemokine secretion, Cytokine Antibody Arrays. Format: cell-based. The note with it: HMGB1 0.5 or 2.0 μg/ml alone, 16 h. On the procedure: as §1
Levels of cytokines and chemokines in mouse serum and joint tissue lysates, or human PBMC culture supernatants were determined using murine or human Cytokine Antibody Arrays (e.g., Cat. No. M0308003 or Cat. No. AAH-CYT-3–4, RayBiotech Inc., Norcross, GA, USA) as previously described,[30],[86],[87]. Serum samples were collected from mice at 24 h post-CLP. The soft tissue of the hindpaw and ankle joints was carefully collected using a previously described protocol. Briefly, 0.5 g of fresh soft tissue was cut into 3 mm pieces, and mixed with 400 μL of a hypertonic solution (500 mL PBS with 4.5 g NaCl and 2× protease inhibitor cocktail) in a 10 mL syringe. Mechanical extrusion, involving 30 rapid back-and-forth movements of the plunger, was then performed. The expelled extracellular fluid was collected, immediately aliquoted, and stored at −20°C until analysis. Cell-conditioned medium was collected from PBMC cultures after 16 h of stimulation. Arrays were performed according to the manufacturer’s protocol, followed by chemiluminescent detection and densitometric quantification as previously described,[30].

Series [7] deals with human PBMCs. As to the kind of experiment: HMGB1-induced pCTS-L secretion, Western blot. Format: cell-based. The settings on record: HMGB1 alone. As for the experimental part:
as §1
Cell-conditioned medium from human PBMC cultures was collected, and concentrated using Amicon Ultra Centrifugal Filters. Equal volumes of conditioned medium, representing equivalent numbers of cells, were resolved on sodium dodecyl sulfate (SDS)-polyacrylamide gels and transferred to polyvinylidene difluoride (PVDF) membranes. After blocking with 5% nonfat milk in Tris-buffered saline with 0.1% Tween 20 (TBST), membranes were probed with a home-made primary monoclonal antibody against pCTS-L (e.g., mAb2, 1:1000) overnight as previously described. After washing, membranes were incubated with a horseradish peroxidase-conjugated secondary antibody. Protein bands were visualized using enhanced chemiluminescence (ECL) substrate (Pierce) and detected with a chemiluminescence imaging system (e.g., Bio-Rad ChemiDoc MP). The relative levels of specific proteins were determined using the UN-SCAN-IT Gel Analysis Software Version 7.1 (Silk Scientific Inc., Orem, UT, USA) and expressed in arbitrary units (AU).

As to 55-KVHMKCFLAFTQTKTF-70 [P2], in the series with CLP-induced sepsis [1] (P2 5.0 mg/kg at 2 h and 24 h post-CLP, 5 mg/kg), the “survival” value was “significantly increased survival rates in both male and female mice; also recorded: significantly increased animal survival”. Further, in the series with CLP-induced sepsis [1] (P2 5.0 mg/kg i.p. at 2 h and 24 h post-CLP, male and female mice, P < 0.05 vs. vehicle), the “animal survival (# of Survivors)” value is 60%. Moreover, the water solubility result in the series “water solubility” was “poor water solubility”.

B1: anti-tetranectin monoclonal antibody mAb8 (antibody, V domains shown)
VH: DVNLVESGGGLVKLGGSLKLSCADSGFTFSSYYMSWVRQTPEKRLELVAAINSNGGRTYYPDTVKGRFTISRDNAKNTLYLQMSSLKSEDTALYYCARQGKNGLDYWGQGTSVTVSS
VL: DIQMTQTTSSLSASLGDRVTISCRASQDISNHLNWYQQKPDGTIKLLIYYTSRLHSGVPSRFSGSGSGTDFSLSISNLEQEDIATYFCQQGKTLPPTFGGGTKLEIK
notes: mouse monoclonal antibody; also called protective anti-TN mAb; source: generated in Balb/C and C57BL/6 mice as previously described [6,30]; hybridoma
As to B1, the “TN peptide bound in dot blot” value in the series with TN peptides (P1-P10) is listed as “targeted P5; also recorded: binds P5”. Further, the “effect on septic survival/lethality” value in the series with CLP-induced sepsis [2] was “protected mice against sepsis”. The binding result in series [3] is “binds”.

B2: TN: full-length human tetranectin (residues 1-181) (protein, UniProt P05452 22-202, looked up)
Tetranectin: EPPTQKPKKIVNAKKDVVNTKMFEELKSRLDTLAQEVALLKEQQALQTVCLKGTKVHMKCFLAFTQTKTFHEASEDCISRGGTLGTPQTGSENDALYEYLRQSVGNEAEIWLGLNDMAAEGTWVDMTGARIAYKNWETEITAQPDGGKTENCAVLSGAANGKWFDKRCRDQLPYICQFGIV
As for B2, in the series on human PBMCs [4], the “HMGB1-induced cytokines (e.g., IL-6) and chemokines (e.g., MCP-1)” value was “did not affect HMGB1-induced cytokines (e.g., IL-6) and chemokines (e.g., MCP-1)”.

B3: HMGB1: recombinant human HMGB1 expressed in E. coli; PBMC stimulus and SPR target (protein)
chain: MGKGDPKKPRGKMSSYAFFVQTCREEHKKKHPDASVNFSEFSKKCSERWKTMSAKEKGKFEDMAKADKARYEREMKTYIPPKGETKKKFKDPNAPKRPPSAFFLFCSEYRPKIKGEHPGLSIGDVAKKLGEMWNNTAADDKQPYEKKAAKLKEKYEKDIAAYRAKGKPDAAKKGVVKAEKSKKKKEEEEDEEDEEDEEEEEDEEDEDEEEDDDDE
B3: the “gene expression of inflammatory cytokines and chemokines” value with human PBMCs [5] is “profoundly upregulated many inflammatory cytokines”. The “cytokine and chemokine protein levels (e.g., TNF, IL-6, IL-10, CXCL5, CXCL1, CXCL8, CCL2, CCL7)” value in the series with human PBMCs [6] was “significantly increased protein levels of various cytokines”. Also, the “pCTS-L expression and secretion” value with human PBMCs [7] is “induced pCTS-L expression and secretion in human immune cells”.
